Consider 4 molecules from patent US20210187120A1 (WISCONSIN ALUMNI RESEARCH FOUNDATION, published 2021).

The target of test [1] is T1, PD-L1 proteins (R&D systems) (UniProt Q9NZQ7 19-239, limits assumed).
T1 construct: Commercial recombinant PD-L1; It was immobilized on a CM5 chip for SPR and used in solution for the FP assay; also called immobilized PD-L1 proteins
The test is described as follows: SPR (BIAcore X), PD-L1 immobilized on CM5 chip, four concentrations (45-270 nM by the legend). On the procedure:
(§1) Surface plasma resonance (SPR). SPR analysis was done using a BIAcore™ X (Pharmacia Biosensor AB, Uppsala, Sweden). In short, PD-L1 proteins (R&D systems) were immobilized onto carboxylated dextran-coated gold film surface of sensor chip (CM5 sensor chip, GE Healthcare) through EDC/NHS chemistry. 30 μL of sample solution was injected at a flow rate of […]. Sample solution was allowed to flow into both channels (channel 1 for reference, channel 2 with PD-L1), and the final SPR sensorgrams were obtained by subtracting the […].
(SPR reads the build-up and loss of mass on a sensor chip optically.)

In test [2] the target is T2, PD-L1 on 786-O cells (PD-L1 overexpressing human renal cell carcinoma line) and MCF-7 cells (low PD-L1) (human, UniProt Q9NZQ7 19-290). Nature of the test: cell-based or functional assay.
T2 sequence (Q9NZQ7 19-290): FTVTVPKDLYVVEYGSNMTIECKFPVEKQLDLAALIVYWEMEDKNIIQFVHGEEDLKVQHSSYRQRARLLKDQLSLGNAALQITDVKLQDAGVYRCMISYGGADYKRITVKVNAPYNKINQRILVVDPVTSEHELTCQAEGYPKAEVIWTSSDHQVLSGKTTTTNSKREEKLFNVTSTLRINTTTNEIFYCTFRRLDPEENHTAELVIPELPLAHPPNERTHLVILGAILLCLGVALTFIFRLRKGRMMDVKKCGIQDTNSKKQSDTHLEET
Test [3] deals with T1, PD-L1 proteins (R&D systems). The test is described as follows: SPR, PD-L1 immobilized on CM5 chip. The method, then: as §1
For test [4] the target is unchanged. Nature of the test: SPR (BIAcore X), PD-L1 immobilized on CM5 chip, four concentrations (17-42 µM by the legend). On the procedure: as §1
The target in test [5] is T2, PD-L1 on 786-O cells (PD-L1 …). Nature of the test: fluorescence microscopy (rhodamine), cells treated for 1 h.
Test [6] has as its target T1, PD-L1 proteins (R&D systems). The test is described as follows: fluorescence polarization, fβH2_mt titrated with PD-L1 in PBS; the concentration varied is that of PD-L1. The method, then:
Fluorescence polarization (FP) assay. FP assay in PBS was used the PD-L1 binding and competition assays (λex=480 nm; λem=535 nm). Fluorescence anisotropy measurements were performed at room temperature, in a 384-well plate, and using an Infinite® M1000 Pro microplate reader (Tecan). A fβH2_mt/PD-L1 complex was used for the FP competition assay after 30 min incubation time and titrated with the competitors.
(In general: In fluorescence polarisation assays a small probe gives low polarisation when free and higher when bound to something large.)

No end group written: not given here.

T1 sequence (Q9NZQ7 19-239 limits assumed): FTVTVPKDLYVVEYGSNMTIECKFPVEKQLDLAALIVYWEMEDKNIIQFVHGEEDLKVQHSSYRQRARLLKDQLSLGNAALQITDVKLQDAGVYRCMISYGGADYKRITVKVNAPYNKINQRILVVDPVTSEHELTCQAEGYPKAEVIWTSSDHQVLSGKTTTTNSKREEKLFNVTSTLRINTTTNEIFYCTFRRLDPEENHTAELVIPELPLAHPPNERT

In test [1], HVVWHRESPSGQTDTKAA-NH2 (other, not fully specified, also called G7-βH2_mt conjugates; DPC) [G7-βH2_mt (βH2_mt peptides conjugated to 90% acetylated G7 PAMAM dendrimer)] registered a Kd of 2.75 nM, a koff of 0.000693 s⁻¹ and a kon of 252000 M⁻¹ s⁻¹. The “IL-2 secretion from Jurkat T cells co-cultured with 786-O cells, compared with the non-treated cancer cells” value in test [2] worked out at 1.52 fold. The “fold decrease of the dissociation rate constant (kd) compared to the free peptide” value in test [3] is approximately 180 times.

B1: free βH2_mt peptide (peptide)
peptide: HVVWHRESPSGQTDTKAA-NH2
notes: also called H2_mt peptides; free peptides
B1: in test [4], the Kd came to 119 µM and the off-rate constant (koff) was 0.127 s⁻¹.

B2: pL1TZ (Trp-Zip βH2 mutant peptide) (peptide)
peptide: HKVWHWESPSGQWDTWAA-NH2
notes: Free tryptophan-zipper peptide; also called pLiTZ
In the case of B2, the binding result in test [5] is “binds”.

B3: fluorescein-conjugated βH2_mt (fβH2_mt) peptide (peptide)
peptide: HVVWHRESPSGQTDTKAA-NH2
modifications: also: fluorescein-conjugated, position not given here
notes: Tracer of the fluorescence polarization assay
Take B3: the half-maximal effective concentration (EC50 (read off the curve)) in test [6] was approximately 0.3 µM.

The term Kd denotes the equilibrium constant for the complex coming apart. A high value points to weaker binding. What is called koff is the rate constant with which the complex falls apart. Read a low koff as a long-lived complex. As a reminder, the kon is the rate constant with which the complex forms. Low values mean slow association, high ones fast association. The EC50 (read off the curve) is the concentration giving half of the maximal effect.
